Reference: paper PMC4451617

Key:
[1] = target: ErbB4 receptor (rat (endogenous in rat brain membranes and cultured rat hippocampal neurons)); test: co-IP; ErbB4 immunoprecipitated with mAB10 from lysates (PBS + 1% TX-100) of cultured rat hippocampal neurons (>DIV 28), unstimulated or 10 nM NRG2 for 10 min; western blot, densitometric ratio of glutamate receptor subunit over ErbB4
[2] = target: ErbB4 receptor (rat (endogenous in rat brain membranes and cultured rat hippocampal neurons))

Chain of ErbB4 receptor (rat (endogenous in rat brain membranes and cultured rat hippocampal neurons)) (Q62956 26-1308): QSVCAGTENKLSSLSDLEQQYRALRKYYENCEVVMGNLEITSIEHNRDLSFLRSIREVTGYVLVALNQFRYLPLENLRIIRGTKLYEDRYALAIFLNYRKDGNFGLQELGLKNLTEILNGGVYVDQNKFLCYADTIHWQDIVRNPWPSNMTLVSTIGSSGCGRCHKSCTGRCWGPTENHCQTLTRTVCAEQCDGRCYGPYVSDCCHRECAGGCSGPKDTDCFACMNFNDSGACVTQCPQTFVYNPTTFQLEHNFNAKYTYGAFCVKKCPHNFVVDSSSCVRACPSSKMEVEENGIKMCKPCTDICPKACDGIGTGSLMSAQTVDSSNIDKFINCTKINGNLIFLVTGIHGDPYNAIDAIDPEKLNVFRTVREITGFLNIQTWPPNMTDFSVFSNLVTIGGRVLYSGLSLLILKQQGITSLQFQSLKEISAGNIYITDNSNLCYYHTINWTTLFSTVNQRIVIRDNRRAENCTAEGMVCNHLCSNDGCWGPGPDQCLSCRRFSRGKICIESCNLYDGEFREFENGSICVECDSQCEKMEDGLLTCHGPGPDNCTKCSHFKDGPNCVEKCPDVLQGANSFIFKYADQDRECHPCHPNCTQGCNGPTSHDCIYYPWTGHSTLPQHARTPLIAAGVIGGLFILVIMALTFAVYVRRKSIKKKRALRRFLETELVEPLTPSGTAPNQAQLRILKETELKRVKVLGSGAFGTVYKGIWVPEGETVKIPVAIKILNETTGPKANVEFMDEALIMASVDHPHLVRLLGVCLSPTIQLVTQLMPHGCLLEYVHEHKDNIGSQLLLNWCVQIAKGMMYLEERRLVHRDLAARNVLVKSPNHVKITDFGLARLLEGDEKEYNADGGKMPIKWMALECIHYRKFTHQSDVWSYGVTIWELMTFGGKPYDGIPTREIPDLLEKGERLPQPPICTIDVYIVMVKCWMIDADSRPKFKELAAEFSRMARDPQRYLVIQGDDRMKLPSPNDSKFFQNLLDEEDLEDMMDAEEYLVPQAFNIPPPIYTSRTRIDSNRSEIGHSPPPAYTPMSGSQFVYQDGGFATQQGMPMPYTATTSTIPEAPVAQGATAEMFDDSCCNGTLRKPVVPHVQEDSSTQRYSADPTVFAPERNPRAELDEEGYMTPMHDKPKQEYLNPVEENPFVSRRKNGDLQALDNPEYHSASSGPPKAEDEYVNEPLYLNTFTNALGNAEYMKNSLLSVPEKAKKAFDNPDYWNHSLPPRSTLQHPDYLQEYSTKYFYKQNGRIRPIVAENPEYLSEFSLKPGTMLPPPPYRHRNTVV

| co-immunoprecipitation after NRG2, % of unstimulated controls (% of controls) [1] | Substance | whole-cell NMDA-evoked currents (100 μM NMDA, +40 mV) in ErbB4+ cultured hippocampal interneurons after 10 min of 10 nM NRG2, relative to baseline; ErbB4-negative neurons not affected (% of baseline) [2] |
| --- | --- | --- |
| 198 | GluN2B subunit of the NMDA receptor (from UniProt Q00960 27-1482) |  |
|  | recombinant NRG2-ECD (neuregulin 2 extracellular domain) (ligand) | 43 |
